Results published in patent publication US20090241202A1 (MICROMET, published 2009).

Target: T1, human EpCAM on Kato III gastric carcinoma cells (human, UniProt P16422 24-314)
T1 sequence (looked up): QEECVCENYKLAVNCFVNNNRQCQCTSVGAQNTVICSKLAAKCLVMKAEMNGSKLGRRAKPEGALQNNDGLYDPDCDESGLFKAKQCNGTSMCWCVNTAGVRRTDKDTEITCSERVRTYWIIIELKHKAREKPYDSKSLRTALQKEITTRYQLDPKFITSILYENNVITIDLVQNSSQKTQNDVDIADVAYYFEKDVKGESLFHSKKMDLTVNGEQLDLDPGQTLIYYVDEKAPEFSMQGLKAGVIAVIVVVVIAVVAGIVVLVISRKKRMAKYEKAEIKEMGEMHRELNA
Experiment: cell-based or functional assay

B1: domain-grafted Anti-EpCAM (antibody, mouse IgG2a, kappa, V domains shown)
VH: EVQLLESGGGVVQPGRSLRLSCAASGFTFSSYGMHWVRQAPGKGLEWVAVISYDGSNKYYADSVKGRFTISRDNSKNTLYLQMNSLRAEDTAVYYCAKDMGWGSGWRPYYYYGMDVWGQGTTVTVSS
VL: ELQMTQSPSSLSASVGDRVTITCRTSQSISSYLNWYQQKPGQPPKLLIYWASTRESGVPDRFSGSGSGTDFTLTISSLQPEDSATYYCQQSYDIPYTFGQGTKLEIKR
  EC50 of ADCC (lysis of Kato III target cells), unstimulated human PBMC as effector cells, E:T 20:1: 2.11 µg/mL
  potency of ADCC against Anti-EpCAM, prestimulated murine NK cells as effector cells: 43.7 fold
